The series concerns the molecule itself. Kind of series: SEC. (Size exclusion chromatography separates by hydrodynamic size, large species first.)

B1: MBP-Opi1 (full-length) (natural protein, S. cerevisiae, UniProt P21957 1-404, looked up)
chain: MSENQRLGLSEEEVEAAEVLGVLKQSCRQKSQPSEDVSQADKMPASESSTTPLNILDRVSNKIISNVVTFYDEINTNKRPLKSIGRLLDDDDDEHDDYDYNDDEFFTNKRQKLSRAIAKGKDNLKEYKLNMSIESKKRLVTCLHLLKLANKQLSDKISCLQDLVEKEQVHPLHKQDGNARTTTGAGEDETSSDEDDDDEEFFDASEQVNASEQSIVVKMEVVGTVKKVYSLISKFTANSLPEPARSQVRESLLNLPTNWFDSVHSTSLPHHASFHYANCEEQKVEQQQQQQQQQQQQQLLQQQLLQQQQQKRNKDGDDSASPSSSVTANGKVLILAKESLEMVRNVMGVVDSTLGKAEEWVKQKQEVKEMIRERFLQQQQQYRQQQQKDGNYVKPSQDNVDSKD
B1: the binding result is “binds”.

Values taken from paper PMC6122994 (The Journal of Cell Biology, 2018).
